From the supplement of paper PMC12042874
± gives the uncertainty stated by the source.

Experiment: amyloid nucleation score (Sup35N fusion, yeast selection) (log enrichment); library NNK3; higher = more nucleation; inactive = no reads after selection
In short: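 Growth for 7 days at 30°C on medium lacking adenine and uracil followed a 24-hour induction with 100 μM copper sulfate of psi-negative yeast expressing peptides of 20 random codons fused to Sup35N. Input and output plasmid inserts were sequenced with Illumina, and sequences with under 100 input reads were excluded. Nucleation score is the DiMSum log enrichment of output over input reads, centred on the mode score of non-aggregating sequences.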
GSSYGVIIVQYYP showed an amyloid nucleation score of 2.02 ± 0.076.
In the case of NCTDLLRMLYGMRRGINSNC, the amyloid nucleation score is reported as “inactive”.
For HLTIVDWSPRESSSWIMRFT, the amyloid nucleation score was “inactive”.
For ELSYDRSKYSINSLWLGIPI, the amyloid nucleation score was “inactive”.
In the case of KLCVESRIIYTFV, the amyloid nucleation score is reported as “inactive”.
For FKWQEW, the amyloid nucleation score was -0.943 ± 1.3.
For CRFWGFDSSINEVGLMQNHL, the amyloid nucleation score was “inactive”.
In the case of FVPFERNKMIMKRICEVCVA, the amyloid nucleation score is reported as 0.97 ± 0.11.
With YSSSFIWMAYESIYFFLIFI the amyloid nucleation score was “inactive”.
In the case of CCVMHDE, the amyloid nucleation score is reported as “inactive”.
For LPLFRISAPMVMYVLLYVPW, the amyloid nucleation score was “inactive”.
In the case of WLLTM, the amyloid nucleation score is reported as “inactive”.
With KLLSSGFMMFWASYQTGYWR the amyloid nucleation score was “inactive”.
PVAVLDG gave an amyloid nucleation score of 0.654 ± 0.18.
In the case of HMNDASPGTAKFEIV, the amyloid nucleation score is reported as “inactive”.
NLFFSVSMSAEFEW gave an amyloid nucleation score of 0.078 ± 0.37.
For TLVLVTRQLSFCRMDSRIEF, the amyloid nucleation score was “inactive”.
For FYSYRTCDGRIAGIIAGNRA, the amyloid nucleation score was “inactive”.
In the case of FKIEDQYNLMHRVFLVSNGG, the amyloid nucleation score is reported as “inactive”.
With DYQTHLCSEGLALLMRKGSR the amyloid nucleation score was “inactive”.
For VLRFFM, the amyloid nucleation score was 0.399 ± 0.23.
For VKTNVCTTYGHY, the amyloid nucleation score was “inactive”.
For LWDDMVIMFGPVICYGMASG, the amyloid nucleation score was “inactive”.
With ARNFLVRIWHCDRFSDCGII the amyloid nucleation score was “inactive”.
For FSNLYLVMTNCPSRDPPVYT, the amyloid nucleation score was “inactive”.
For ASVYTN, the amyloid nucleation score was “inactive”.
With IALKSGMVCRYRYHIGGRIS the amyloid nucleation score was “inactive”.
For RKFDPSISGSCWNVGISCVV, the amyloid nucleation score was “inactive”.
With SDAVSIWGQKSNISSICNDS the amyloid nucleation score was “inactive”.
With FFLNLKDMFDHAL the amyloid nucleation score was “inactive”.
In the case of FRHFRSLLSVFLVYRFQLSV, the amyloid nucleation score is reported as “inactive”.
In the case of ASFISCSIMYYFIVFCL, the amyloid nucleation score is reported as “inactive”.
TVPIMNVPD showed an amyloid nucleation score of -0.428 ± 0.8.
With TVYSTVSRDMNDKHFAGSTG the amyloid nucleation score was “inactive”.
In the case of RSPTVL, the amyloid nucleation score is reported as “inactive”.
Work on LLKVSGYWLMLRGLTRKFMG yielded an amyloid nucleation score of -0.047 ± 1.1.
Work on VVLSWT yielded an amyloid nucleation score of -0.477 ± 1.1.
With DYVIVCAMEKLNRTVLWAQG the amyloid nucleation score was “inactive”.
In the case of MYWWRFVGLQSIYSGQLCKR, the amyloid nucleation score is reported as “inactive”.
For FFFVDMYWSDCLKDLLL, the amyloid nucleation score was “inactive”.
Substance DLTLIWMGGAAM has an amyloid nucleation score of 0.826 ± 0.22.
RSFHNHHWTVNY showed an amyloid nucleation score of 1.46 ± 0.11.
In the case of KRMLCWFINKVIYLRYLWQV, the amyloid nucleation score is reported as “inactive”.
In the case of HGVNT, the amyloid nucleation score is reported as “inactive”.
With CFSYSLGVLVTYRGCYRSVL the amyloid nucleation score was “inactive”.
In the case of TMQEGRLSSWYSTVFFS, the amyloid nucleation score is reported as -0.073 ± 0.43.
For RRKRSQSE, the amyloid nucleation score was “inactive”.
In the case of GYGSAQCQFRWWYCFE, the amyloid nucleation score is reported as -0.317 ± 0.65.
For VRRIIML, the amyloid nucleation score was “inactive”.
For RLGCCGVSSEWVCRKYLLRG, the amyloid nucleation score was “inactive”.
In the case of AENINCKMM, the amyloid nucleation score is reported as 1.45 ± 0.12.
With LRAKFLILWSRFMQGMQGVT the amyloid nucleation score was “inactive”.
Work on MCVWVWI yielded an amyloid nucleation score of 2.06 ± 0.092.
With VIKVWLLCRRIVSVQFLAP the amyloid nucleation score was “inactive”.
In the case of DISSFGHFSMSFFNRIIKGA, the amyloid nucleation score is reported as “inactive”.
In the case of LDTDWLGYSSLP, the amyloid nucleation score is reported as “inactive”.
With NNCEVNLCSLELPWKTKLMM the amyloid nucleation score was 0.264 ± 0.85.
For HYAAFFYLLINMTGHAHFLK, the amyloid nucleation score was “inactive”.
FQIWCIFYLNMS gave an amyloid nucleation score of 2 ± 0.095.
For LSMCSLHRNTVFWFRISLMI, the amyloid nucleation score was “inactive”.
RNATIALCAGWVIYDSVFKG gave an amyloid nucleation score of 2.27 ± 0.073.
In the case of YLLLARIEKRFGFFVISDPG, the amyloid nucleation score is reported as “inactive”.
With TKDIMHTSSLVRWTHREAWC the amyloid nucleation score was “inactive”.
For SYKSLNCALFLQ, the amyloid nucleation score was 0.574 ± 0.24.
For GILLRFNKGA, the amyloid nucleation score was “inactive”.
HSITNITCSFDLAFLRMHVL showed an amyloid nucleation score of 0.871 ± 0.11.
In the case of YCKEGLQQDPIFSKFYEHLG, the amyloid nucleation score is reported as “inactive”.
In the case of DICRFNWMFHF, the amyloid nucleation score is reported as 1.3 ± 0.11.
For FDACRFHVHLRYLFNNRYMG, the amyloid nucleation score was “inactive”.
For FRFSGWLCWSTALPILVRKD, the amyloid nucleation score was “inactive”.
In the case of LTYHLFYMVADACVIWYDCS, the amyloid nucleation score is reported as 0.833 ± 0.32.
With TVTGFTCNGCFHAVNSVVLT the amyloid nucleation score was 0.002 ± 0.8.
In the case of CYRWL, the amyloid nucleation score is reported as “inactive”.
With VRYVSFAEFSWGLRFSVSRR the amyloid nucleation score was “inactive”.
With DNKVFTLSNQA the amyloid nucleation score was “inactive”.
For MGHDHHWSGSDMGS, the amyloid nucleation score was “inactive”.
For IAGLSNNTTDGLLRISHRYL, the amyloid nucleation score was “inactive”.
In the case of LPVHLDNMCFHVVRAEESRR, the amyloid nucleation score is reported as “inactive”.
QYLHAGGHVIVGTWYEVNMG showed an amyloid nucleation score of 1.36 ± 0.16.
FLLCHYCFFVDTPGRIFYYS showed an amyloid nucleation score of 0.724 ± 0.18.
With PVLQIIRLADRLWLDIG the amyloid nucleation score was “inactive”.
For CLDPRGRNRAGPAVIGGPSV, the amyloid nucleation score was “inactive”.
With CVICSELLSSDCIIGDHRLR the amyloid nucleation score was 1.7 ± 0.1.
Substance FMNCWQRAGVRSLGVYGNSA has an amyloid nucleation score of 0.13 ± 0.45.
For NDHLLL, the amyloid nucleation score was “inactive”.
In the case of LQILLSR, the amyloid nucleation score is reported as “inactive”.
For NWLDWYYPYLKMVIATGFND, the amyloid nucleation score was “inactive”.
In the case of SISLITFCRMCDAWLWRFGV, the amyloid nucleation score is reported as “inactive”.
For GDGYRQRVLLWMLVSAGPAS, the amyloid nucleation score was “inactive”.
For VNCWTNYRYQGSDFIMSYIR, the amyloid nucleation score was “inactive”.
In the case of SRNSSIMCFL, the amyloid nucleation score is reported as “inactive”.
For WLHINGVLYIFSMAGSALSV, the amyloid nucleation score was “inactive”.
With QFEHF the amyloid nucleation score was “inactive”.
VLIYLDRCRNFDEKGFHNFC gave an amyloid nucleation score of 0.448 ± 0.21.
With SMCPPLQRG the amyloid nucleation score was “inactive”.
YWPIHSSTAETDVTVRTRSY gave an amyloid nucleation score of 1.01 ± 0.14.
With FFSASQRVAY the amyloid nucleation score was “inactive”.
In the case of ILRFMYAVHDISFFYLIVCF, the amyloid nucleation score is reported as “inactive”.
For RNHGGNDSDILRRSESMSDR, the amyloid nucleation score was “inactive”.
In the case of DLFLKLSCDSRI, the amyloid nucleation score is reported as “inactive”.
In the case of GLLPSKKILFLAILTHNRCW, the amyloid nucleation score is reported as “inactive”.
For HEYECGWIGVVFTMILMSLS, the amyloid nucleation score was “inactive”.
With YVNFFVKVSV the amyloid nucleation score was “inactive”.
With NVAAISGILYSLLTFFLSGG the amyloid nucleation score was “inactive”.
With LYLLSKRFHNLYLLDKVLKY the amyloid nucleation score was “inactive”.
In the case of NRFQLVSRYAWHSWVK, the amyloid nucleation score is reported as “inactive”.
With RVYHLIWFFYYLYNGHFISS the amyloid nucleation score was “inactive”.
With VNEPDSVFMT the amyloid nucleation score was “inactive”.
With NSSCSCTCLLSGHRHTP the amyloid nucleation score was 0.829 ± 0.24.
For IEGTAMTVTFTFNPYPFHET, the amyloid nucleation score was “inactive”.
For NLDRLYI, the amyloid nucleation score was “inactive”.
SSCNLIWCFSSDAILKPLMQ showed an amyloid nucleation score of 1.38 ± 0.093.
For IGKSRFKCMSVVRSRFT, the amyloid nucleation score was “inactive”.
For HLGDGTA, the amyloid nucleation score was “inactive”.
In the case of LNCNSESMLPLYNMVWRNRN, the amyloid nucleation score is reported as “inactive”.
TTSRNRIGRGLCGLAS showed an amyloid nucleation score of -0.115 ± 0.48.
For FDHPFICIKPRATRREAWLT, the amyloid nucleation score was “inactive”.
In the case of FCFYICGLGFY, the amyloid nucleation score is reported as “inactive”.
For RKLSAHLQEGD, the amyloid nucleation score was “inactive”.
For RRPVRSSNGALTLICRDREF, the amyloid nucleation score was “inactive”.
In the case of NQYQSLSRRCSAGALGALVV, the amyloid nucleation score is reported as “inactive”.
For NTSISGSSM, the amyloid nucleation score was “inactive”.
With KIQSSTNLPFGASL the amyloid nucleation score was “inactive”.
SFLVSSINNVQGFFSVNGYV showed an amyloid nucleation score of 0.085 ± 0.26.
With YGNGWTFWSFLWGSTNRQRT the amyloid nucleation score was “inactive”.
With NYRAPMCCELFNKWVF the amyloid nucleation score was “inactive”.
In the case of FTLASRLLWGRMCNV, the amyloid nucleation score is reported as “inactive”.
With SLLYYFWTNPGAFSKYIYSM the amyloid nucleation score was “inactive”.
For LSCSQKV, the amyloid nucleation score was “inactive”.
For SWYYLQFIFMDFMINFCVME, the amyloid nucleation score was “inactive”.
For RHLLTISKPEMMCGDADEYR, the amyloid nucleation score was “inactive”.
For HVLLDPEIITA, the amyloid nucleation score was “inactive”.
For VVCFLYIRSYNQGLCRSYFR, the amyloid nucleation score was 2.29 ± 0.091.
In the case of TMHGAQFCD, the amyloid nucleation score is reported as “inactive”.
With AIFRS the amyloid nucleation score was “inactive”.
For SFSLNRRWFNIGS, the amyloid nucleation score was “inactive”.
With TFMPIGLNL the amyloid nucleation score was “inactive”.
For FASRIWSSTITSCHLLSGSL, the amyloid nucleation score was “inactive”.
In the case of IRNFSLKPISSNLNSL, the amyloid nucleation score is reported as “inactive”.
In the case of CVNGTKEGTVRGSRARGRSF, the amyloid nucleation score is reported as “inactive”.
For MSDEDRYNRWFDTGVGVLDR, the amyloid nucleation score was “inactive”.
For IWLVLESCNVPFL, the amyloid nucleation score was “inactive”.
In the case of ERSLFAYMYNNGR, the amyloid nucleation score is reported as “inactive”.
For SNLVPMQCVIL, the amyloid nucleation score was “inactive”.
In the case of SRDTVRVLNLLGRKALMRGQ, the amyloid nucleation score is reported as “inactive”.
For HLGVGG, the amyloid nucleation score was “inactive”.
In the case of RRAYVKQGVEFRIWNCYYWL, the amyloid nucleation score is reported as 0.667 ± 0.16.
For CCLYTVNNSDSLVNTTVGVG, the amyloid nucleation score was “inactive”.
For ENALRLRQVGQILGLNCRIV, the amyloid nucleation score was “inactive”.
For NLFGC, the amyloid nucleation score was “inactive”.
For QGVVV, the amyloid nucleation score was “inactive”.
For IMSPTFGFQMLWPGPRHRLL, the amyloid nucleation score was “inactive”.
For DSRLE, the amyloid nucleation score was “inactive”.
For LMYRYVTLNAFRESISYISS, the amyloid nucleation score was “inactive”.
In the case of VQSFGPNFD, the amyloid nucleation score is reported as “inactive”.
With VCPVERSY the amyloid nucleation score was “inactive”.
In the case of TLYFFKYFWMFVVMCKINKA, the amyloid nucleation score is reported as “inactive”.
In the case of IGPVTLKERETRTP, the amyloid nucleation score is reported as “inactive”.
With SYFVAAVYYQDERNNGFCGQ the amyloid nucleation score was “inactive”.
For RRHLITSVHQTLIVVGFDPR, the amyloid nucleation score was “inactive”.
Substance NLWYAFMSFVVNDGHIRLGR has an amyloid nucleation score of 1.1 ± 0.11.
For NLTRGYISRKRMSCPQ, the amyloid nucleation score was “inactive”.
